Measurements taken from article PMC8631645, “Avidity observed between a bivalent inhibitor and an enzyme monomer with a single active site” (PLoS ONE, 2021).

Tests used:
[1] = biological target: bovine trypsin (bovine); test: enzyme activity titration; pre-titrated bovine trypsin (9 uL, 30 uM) mixed with six dilutions of APPI monomer or dimer; residual activity on 100 uM L-BAPA, 100 mM Tris, 5 mM CaCl2, pH 8.0, 37 C; compared with concentration by absorbance at 280 nm; conditions: both partners purified
[2] = biological target: T1, mesotrypsin (human, UniProt P35030 81-304); test: enzyme inhibition kinetics; mesotrypsin 0.25 nM, Z-GPR-pNA 5-250 uM, APPI monomer 0-400 nM or dimer inhibitor units 0-96 nM, 37 C, 100 mM Tris, 1 mM CaCl2, pH 8.0; global fit to the classic competitive inhibition equation; for the dimer an apparent constant of a single inhibitory unit; conditions: both partners purified
T1 construct: also called recombinant human mesotrypsin
T1 sequence (looked up): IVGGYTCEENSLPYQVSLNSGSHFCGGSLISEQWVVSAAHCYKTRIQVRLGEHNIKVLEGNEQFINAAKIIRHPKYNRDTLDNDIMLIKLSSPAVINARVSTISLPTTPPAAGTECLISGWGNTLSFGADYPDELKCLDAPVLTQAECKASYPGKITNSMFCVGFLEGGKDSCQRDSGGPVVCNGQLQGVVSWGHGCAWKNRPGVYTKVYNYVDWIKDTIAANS

B1: dimeric amyloid precursor protein inhibitor (APPI homodimer, two APPI units in tandem joined by a GGGGSx3 linker) (other)
chain: EVCSEQAETGPCRAMISRWYFDVTEGKCAPFFYGGCGGNRNNFDTEEYCMAVCGSAMGGGGSGGGGSGGGGSEVCSEQAETGPCRAMISRWYFDVTEGKCAPFFYGGCGGNRNNFDTEEYCMAVCGSAM
modifications: three disulfides per Kunitz unit. Limits from the printed primers (text says 3L33 residues 4-55 = 290-341). GGGGSx3 linker kept between units. Possible restriction-site residues at the junction and …
stoichiometry N [1]: 2 trypsin per APPI dimer | Ki [2]: 36.1 nM
